The values below come from the nanobody polyreactivity screen of Harvey et al. (2022).

The series is described as follows: yeast display, Sf9 membrane polyspecificity reagent, FACS + sequencing; frameworks hold sequencing errors. In short, it runs like this:
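Genes from sorted yeast were amplified by colony PCR, read by MiSeq 2 × 250 sequencing and filtered on CDR length. These cells carried a synthetic nanobody library in Saccharomyces cerevisiae BJ5465 and were sorted by FACS into low and high (top ~1%) gates on anti-HA and streptavidin fluorescence. Polyreactivity is labelled according to the gate of origin.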
In the case of “QVQLVESGGGLVQAGGSLRLSCAASGFIFATYDMGWYRQAPGKERELVAAIDSDGSTNYADSVKGRYTISRDNAKNTVYLQMNSLKPEDTEVYYCAADRFQWGFWWLEYWGQGTQVTVSS”, the “polyreactivity (PSR sort gate)” value is reported as “high polyreactivity”.

For “QVQLVESGGGLVQAGGSLRLSCAASGRTFRKKAMGWYRRAPGKERELVAAISASGTSTYYADSVKGRFTNSRDNAKISVYLQMISLKPEDTAVYYCAARSYGIYDYWGQGSQVTVSS”, the “polyreactivity (PSR sort gate)” value is given as “high polyreactivity”.

On to “QVQLVESGGGLVQAGGSLRLSCSASGFIFRRYAMGWYRQAPGKEREFVAAITSSGTSTYYADSVKGRFTISRDNAKNTVYLQMNSLKPEDTAVYYCADVYQYTHYYSNYGYWGEGTQVTVSS”, for which the “polyreactivity (PSR sort gate)” value is listed as “high polyreactivity”.

In the case of “QVQLVESGGGLVQAGGSLRLSCAASGRIFYRNAMGWYRQAPGKERELVAVITSSSGSTYADSVKGRFTISRDNAKNTVYLQMNSLKPEDTAVYYCAAEEDYIYFYVSMDYWGQGTQVTVSS”, the “polyreactivity (PSR sort gate)” value is “low polyreactivity”.

Take “QVQLVESGGGLVQAGGSLRLSCAASGRTSLAYAMGWYRQAPGKERELVAAISRTGSTYYADSVKGRFTISRDNAKNTVYLQMNSLKPEDTAVYYCNAKRRPYSVRSDYWGQGTQVTVSS”: the “polyreactivity (PSR sort gate)” value was “high polyreactivity”.

Regarding “QVQLVESGGGLVQAGGSLRLSCAASGRTFRGYAMGWYRQAPGKERELVAAITSGGSTNYADSVKGRFTISRDHAKNSVYLQMNSLKPEDTAVDYCNRDTSKYGLWRYIYDYWGQGTQVTVSS”, the “polyreactivity (PSR sort gate)” value is reported as “low polyreactivity”.

With “QVQLVESGGGLVQAGGSLRLSCAASGRTFRYYAMGWYRQARGKERELVAAISKTGGSTYYADSVKGRFTISRDNAKNTVYLQMNSQKPEDTAVYYCAAQSGWGYSTFYYWGQGTQVTVSS”, the “polyreactivity (PSR sort gate)” value is “high polyreactivity”.

In the case of “QVQLVESGGGLVQAGGSLRLSCAASGRIFLGYAMGWYRQAPGQERELVASITSSGGSTYYADSVKGRFTISRDNAKNTVYLLMNSLKPEDTAVYYCAKVGHYRWGWLSRAASDYWGQGTQVTVSS”, the “polyreactivity (PSR sort gate)” value was “high polyreactivity”.

Take “QVQLVESGGGLVQAGGSLRLSCAASGRIFSFYSMGWYRQAPAKERELVATISKRAGSTYYADSVKGRFTISRDNAKNTVYLQMNSLKPEDTAVYYCAARKWYYASSRWRDYWGQGTQVTVSS”: the “polyreactivity (PSR sort gate)” value is listed as “high polyreactivity”.

“QVQLVESGGGLVQAGGSLRLSCAASGSIFGPNPMGWYRQAPGKERELVAAISWTGGRTYYADSVKGRFTISRDNAKNTVYLQMNSLKPEDTAVYYCAAARYLSGGYEKYDYWGQGTQVTVST”: the “polyreactivity (PSR sort gate)” value is recorded as “low polyreactivity”.

As to “QVQLVESGGGLVLAGGSLRLTWAASGSIFHYYAMGWYRQAPGKERELVAAISWSGGRTYYADSVKGRFTISRDNAKNTVYLEMNSLKPEDTAVYFCAADTYPYIGGYYWGQGTQVTVSS”, the “polyreactivity (PSR sort gate)” value is recorded as “high polyreactivity”.

Take “QVQLVESGGGLVQAGGSLRLSCAASGITFVPNAMGWYRQAPGKERELVAAINNGGSTYYADSVKGRFTISRDNAKNTVYLQMNSLKPEDTAVYYCAAVSLSTVRGYYYWGQGTQVTVSS”: the “polyreactivity (PSR sort gate)” value is “low polyreactivity”.

“QVQLVESGGGLVQAGGSLRLSCAASGITFYYYGMGWYRQAPGKERELVAAITTGGNTNYADSVKGRFTISRDNAKNTVYLQMNSLKPEDTAVYYCAAEYRIPYFFTYGYWGQGTQVTVSS”: the “polyreactivity (PSR sort gate)” value was “high polyreactivity”.

For “QVQLVESGGGLVQAGGSLRLSCAASGRTFKYNVMGWYRQAPGKERELVAAISSGGGTNYADSVKGRFTISRDNAKNTVYLQMNSLKPEDTAVYYCAAKYAWRLLEMYYWGQGTQVTVSS”, the “polyreactivity (PSR sort gate)” value was “low polyreactivity”.

For the sequence “QVQLVESGGGLVHAGGSLRLSCAASGSTFSWYVMGWYRQAPGKERELVAAISYRGGRTYYADSVKGRFTISRDNAKNTVYLHMNSLKTEDTAVYYCAARGVVDAGRTNRPYDYWGQGTQVTVSS”, the “polyreactivity (PSR sort gate)” value is “low polyreactivity”.

Regarding “QVQHVESGGGLVQAGGSLRLSCAASGFIFSNNAMGRYRQAPGKERELVAAITSSGGRTYYADSVKGRFTISRDNAKNTVYLQMNSLKPEDTAVYYCAAVWRTSVWTKYGYWGQGTQVTVSS”, the “polyreactivity (PSR sort gate)” value is listed as “high polyreactivity”.

As to “QVQLVESGGGLVQAGGSLRLSCAASGFTFSHNAMGWYRQAPGKERELVAAISGSGGRTYYADSVKGRFTISRDNAKNTVYLQMNSLKPEDTAVYYCNAGRWWRRGYGYWGQGTQVTVSS”, the “polyreactivity (PSR sort gate)” value is reported as “high polyreactivity”.

In the case of “QVQLVESGGGLVQAGGTLRLSCAASGLIFVRYAMGWYRQAPGKERELVATITDGGSKYYADSVKGRFTISRDNAKNTVYLQMNSLKPEDTAVYYCNKDRVSVRYEYWGQGTQVTVSS”, the “polyreactivity (PSR sort gate)” value was “low polyreactivity”.

As for “QVQLVESGGGLVQAGGSLRLSCAASGRIFGPYAMGWSRQAPGKERELVATITWRTGSTYYADSVKGRFTISRDNAKNTVYLQMNSLKPEDTEVYYSAARYGRYSKAGDYWGQGTQVTVSS”, the “polyreactivity (PSR sort gate)” value was “high polyreactivity”.

“QVQLVESGGGLVQAGGSLSLSCAASGFTFRYNAMGWYRQAPGKERELVARISSTGGGTSYADSVKGRFTISRDNAKNTVYLQMNSLKPEDTAVYYCAAPVRRYPYPGRFYYWGQGTQVTVSS”: the “polyreactivity (PSR sort gate)” value was “low polyreactivity”.

As to “QVQLVESGGGLVQAGGSLRLSCAASGRTFARYAMGWYRQAPGKERDLVADITSGGSTNYADSVKGRFTISRDNAKNTVYLQMNSLEPEDTAVYYCAAYVVWSWFEEYEYWGQGTQVTVSS”, the “polyreactivity (PSR sort gate)” value is given as “high polyreactivity”.

For the sequence “QVQLVESGGGLVQAGGSLRLSCAASGRIVRRYARGWYIQAPGKERELVAAITNNGGNTYYADSVKGRFTISRDNAKNTVYLQMNSLKPEDTAVYYCKAGYYWGQGTQVTVSS”, the “polyreactivity (PSR sort gate)” value was “high polyreactivity”.

Take “QDQLVESGGGLVQAGGSLRLSCAASGFIFARYVMGWYRPAPGKERELVASITGSGVSTYYADSVKGRFTISRDNAKNTVYLQMNSLKPEDTAVYYCATRVYRRYYLNSWYNYWGQGTQVTVSS”: the “polyreactivity (PSR sort gate)” value is “high polyreactivity”.

For the sequence “QVQLVESGGGLVQAGGSLRLSCAASGSTFTPYAMGWNRQAPGKERELVAAIRRGGSTNYADSVKGRFTISRDNEKNTVYLQMNSLKPEDTAVYYCAATKRRFVKFDYWGQGTQVTVSS”, the “polyreactivity (PSR sort gate)” value is reported as “low polyreactivity”.

Regarding “QVQLVDSGGGLVQAGGSLRLSCAASGHTLAVNAMGWYRPAPGKERELVAAITSSGGSTSYADSEKGRFTISRDNAKNTVYLQMNSLKPEDTAVYYCAAEQRYPLIILYDYWGQGTQVTVSS”, the “polyreactivity (PSR sort gate)” value was “low polyreactivity”.

In the case of “QVQLVESGGGLVQAGGSLRLSCAASGITFPWYAMGWYRQAPGKERELVAAISSDADTYYADSVKGRFTISRDNAKNTVYLQMISLKPEDTAVYYCAAETFDYSRGYTAMGYWGQGTQVTVSS”, the “polyreactivity (PSR sort gate)” value is “high polyreactivity”.

For “QVQLVESGGGLVQAGGSIRLSCAASGYSFNGYAMGWYRQAPGKEREFVAAISWSGGSTYYADSVKGRFTISRDNAKNTVYLQMNSLKPEDTAVYYCAKRRGGGYDYWGQGTQVTVSS”, the “polyreactivity (PSR sort gate)” value was “low polyreactivity”.

In the case of “QVQLVESGGGLVQAGGSLRLSCADSGGTFKLYAMGWYSQAPAKESELVAAISRRGGSTYYADSVKGRFTISRDNAKNTVYLQMNSLKPDDTAVYYCAAPGPTQSTQRGGYWGQGTQVTVSS”, the “polyreactivity (PSR sort gate)” value is “high polyreactivity”.

With “QVQLVESGGGLVQAGASLRLCCAASGRILRRYAMGWYRQAPGKEWELVAAITARTGSTYYADSVKGRFTISRDTAKYTVYLQMNSLKPEDTAVYYCNAVNELTGGVIFNYWGQGTQVTVSS”, the “polyreactivity (PSR sort gate)” value is given as “high polyreactivity”.

In the case of “KLQLVDSGGGLVQAGGSLRLSCAASGSTIRYYAMGWYRQAPGKERELVAAITISGGGTYADSVKGRFTISRDNAKNTVYLEMNSLKPEDTAVYYCAATYYGFLYRSIGDYWGQGTQVTVSS”, the “polyreactivity (PSR sort gate)” value is given as “low polyreactivity”.

As for “QVQLVESGGGLVQAGGSLRLSCAASGNTFGYYAMGWYRQAPGKERELVAAINFGGDTSYADSVKGRFTISRDNAKNTVYLQMNSLKPEDTAVYYCAADGSYWIYADGDYWGQGTQVTVSS”, the “polyreactivity (PSR sort gate)” value is “low polyreactivity”.

On to “QVQLVESGGGLVQAGGSLRISCAAYGSTFGPYAMGWYRQAPGKERELVAAITWNGGSTYYADSVKGRFTISRDNAKNTVYLQMTSLKPEDTAVYYCAAKAYGRKGTYRVNYWGQGTQVTVSS”, for which the “polyreactivity (PSR sort gate)” value is “high polyreactivity”.

As for “QVQLVDSGGGLVQAGGSLRLSSAASGRIFNRYAMGWYRQAPGKERELVAAITRGTRTNYADSVKGRFTISRDNAKNTVYLQMNSLKPEDTAVYYCAAAYGRGSDSDYWGQGTQVTVSS”, the “polyreactivity (PSR sort gate)” value is on record as “high polyreactivity”.

For the sequence “QVQLVESGGGLVQAGGSLRLSCAASGFIFATYAMGWYRQAPGKDRELVAAISRSGGSTYYADSVKGRFTISRDTAKNTVYSQMNCLKPEDTAVYYCAADSDPAPPDYDYWGQGTQVTVSS”, the “polyreactivity (PSR sort gate)” value was “high polyreactivity”.

Regarding “QVQLVESGGGLVQAGGRLRLRCAASGSIFSPNAMGWYRQAPGKERELVATISFSGGRTYYADSVKGRFTISRDNAKNSVYLQMNSLKPEDTAVYYCAKAYYYTDMDYWGQGTQVTVSS”, the “polyreactivity (PSR sort gate)” value is “low polyreactivity”.

Turning to “QVQLVESGGGLVQAGGSLRLSCAASGFIIQGNAMGWYRQAPGKERELVAAISSSVSTYYADSVKGRFTISRDNAKNTVYLQMNSLKPEDTAVYYCNAGFPLSLWLGDYWGQGTQVTVSS”, the “polyreactivity (PSR sort gate)” value is “low polyreactivity”.

Take “QVQLVESGGGLVQAGGSLRLSCAASGRFLVLNAMGWYRQAPAKERELVADLTSVGSTYYADSVKGRFTISRDNAKNTVDLQMNSLKPEDTAVYYFAADWNTYPDYQQSYFVSYEYNYWGQGTQVTVSS”: the “polyreactivity (PSR sort gate)” value is on record as “low polyreactivity”.

With “QVQLVESGGGLVQAGGSLLLRCAASGRTFKNYAKGWSRQAPGKERELVAAISSGGGRTKYADSEKGRFTISRDNAKNSVYLQLNSLKPDDTAVYYCAAAFYYRDDYWGQGSQVTVSS”, the “polyreactivity (PSR sort gate)” value was “high polyreactivity”.

As to “QVQLVESGGGLVQAGGSLRLSCAASGSTCDTNVMGWYRQAPGKERELVAAITTSSSRTYYADSVKGRFTISRDNAKNTGYLQMNSLKPEDTAVYDCAARIHGSWSFDYWGQGTQVTVSS”, the “polyreactivity (PSR sort gate)” value is “low polyreactivity”.

With “QVQLVESGGGLVQAGGSLRLSCAASGRISYYYMGWYRQAPGKERELVAAISWNGGRTYYADSVKGRFTISRDNAKNTVYLQMNSLKPEDTAVYYCAAYTYSFRANHDYWGQGTQVTVSS”, the “polyreactivity (PSR sort gate)” value is reported as “high polyreactivity”.

On to “QVQIVESGGGLVQAGGSLRLTCAASGFTFTDYAMGWYRQAPGIERELVAVITYDSTYYADSVKGRFTISRDNAKNTVSLHMNSLKPEDTAVYYCAADSYDWGEFDYWGQGTQVTVSS”, for which the “polyreactivity (PSR sort gate)” value was “low polyreactivity”.
